Reference: US20250002943

System: Bxb1 integrase (serine recombinase) (Mycobacterium phage Bxb1?)
Experiment: cell_activity

| Substance | activity (% mNeonGreen-positive cells) (attB on cargo recombined with genomic attP in hiPSCs, 0.01% without cargo and Bxb1 plasmids) | activity (% mNeonGreen-positive cells) (attP x attB recombination in hiPSCs, all components delivered with Cas9 RNP, 0.38% without attP ssODN template) |
| --- | --- | --- |
| Bxb1 attB site on circularised mNeonGreen cargo | 11.3 | – |
| Bxb1 attP site (58 nt, integrated at ACTR10 via ssODN) | – | 11.3 |
